Where two headings read alike, the source gives them in different places.

This passage reports binding result and EC50 results from patent US10722576 (dated 2020).

Holding throughout (assay): ELISA
For orientation: An ELISA detects its analyte on a solid surface through an enzyme-linked reagent.

Test [1] has as its target T1, human TfR-2 (human, UniProt Q9UP52).
T1 chain: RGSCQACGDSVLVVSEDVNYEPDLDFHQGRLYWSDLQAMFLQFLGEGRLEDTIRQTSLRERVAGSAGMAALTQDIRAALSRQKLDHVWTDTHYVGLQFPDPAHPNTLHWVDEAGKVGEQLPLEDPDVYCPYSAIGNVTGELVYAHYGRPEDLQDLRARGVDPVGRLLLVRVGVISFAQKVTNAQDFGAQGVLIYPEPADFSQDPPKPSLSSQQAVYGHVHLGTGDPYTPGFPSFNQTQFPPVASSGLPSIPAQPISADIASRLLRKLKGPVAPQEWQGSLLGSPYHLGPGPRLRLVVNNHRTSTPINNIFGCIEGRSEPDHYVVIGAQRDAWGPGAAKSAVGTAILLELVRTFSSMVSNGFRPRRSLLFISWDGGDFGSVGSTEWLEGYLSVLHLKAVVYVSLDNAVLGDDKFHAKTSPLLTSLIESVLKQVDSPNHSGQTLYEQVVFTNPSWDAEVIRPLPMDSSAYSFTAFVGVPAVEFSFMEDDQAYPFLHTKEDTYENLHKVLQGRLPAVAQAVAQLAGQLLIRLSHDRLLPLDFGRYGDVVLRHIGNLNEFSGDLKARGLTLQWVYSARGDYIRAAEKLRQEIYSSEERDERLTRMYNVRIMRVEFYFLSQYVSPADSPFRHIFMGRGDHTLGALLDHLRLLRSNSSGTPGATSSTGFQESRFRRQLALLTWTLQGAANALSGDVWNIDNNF

Test [2] has as its target T2, human TfR-1 (human, UniProt P02786).
The target of test [3] is T2, human TfR-1. This is another data set of the same source.
Test [4] concerns the target T3, mouse TfR-1 (mouse, UniProt Q62351).
In test [5] the target is T2, human TfR-1. This is another data set of the same source.
Test [6] concerns the target T3, mouse TfR-1. This is another data set of the same source.

T2 sequence (P02786 89-760): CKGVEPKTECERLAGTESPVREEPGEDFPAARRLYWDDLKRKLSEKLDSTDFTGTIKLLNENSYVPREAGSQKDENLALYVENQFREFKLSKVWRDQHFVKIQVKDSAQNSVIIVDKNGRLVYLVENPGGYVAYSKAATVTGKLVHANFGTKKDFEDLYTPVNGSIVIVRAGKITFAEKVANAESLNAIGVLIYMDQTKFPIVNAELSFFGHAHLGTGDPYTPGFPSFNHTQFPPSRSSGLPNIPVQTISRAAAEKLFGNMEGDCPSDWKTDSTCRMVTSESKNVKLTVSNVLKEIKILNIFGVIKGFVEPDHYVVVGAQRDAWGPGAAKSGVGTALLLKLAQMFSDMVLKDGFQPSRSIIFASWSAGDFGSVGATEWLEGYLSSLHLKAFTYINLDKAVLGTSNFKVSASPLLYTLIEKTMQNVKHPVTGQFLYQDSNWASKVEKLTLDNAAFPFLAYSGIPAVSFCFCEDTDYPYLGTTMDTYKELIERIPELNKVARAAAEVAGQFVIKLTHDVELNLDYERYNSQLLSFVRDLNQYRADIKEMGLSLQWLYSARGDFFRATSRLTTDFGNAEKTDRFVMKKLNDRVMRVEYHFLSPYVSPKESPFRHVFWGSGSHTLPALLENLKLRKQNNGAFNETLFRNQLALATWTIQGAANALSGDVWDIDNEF
T3 sequence (Q62351 89-763): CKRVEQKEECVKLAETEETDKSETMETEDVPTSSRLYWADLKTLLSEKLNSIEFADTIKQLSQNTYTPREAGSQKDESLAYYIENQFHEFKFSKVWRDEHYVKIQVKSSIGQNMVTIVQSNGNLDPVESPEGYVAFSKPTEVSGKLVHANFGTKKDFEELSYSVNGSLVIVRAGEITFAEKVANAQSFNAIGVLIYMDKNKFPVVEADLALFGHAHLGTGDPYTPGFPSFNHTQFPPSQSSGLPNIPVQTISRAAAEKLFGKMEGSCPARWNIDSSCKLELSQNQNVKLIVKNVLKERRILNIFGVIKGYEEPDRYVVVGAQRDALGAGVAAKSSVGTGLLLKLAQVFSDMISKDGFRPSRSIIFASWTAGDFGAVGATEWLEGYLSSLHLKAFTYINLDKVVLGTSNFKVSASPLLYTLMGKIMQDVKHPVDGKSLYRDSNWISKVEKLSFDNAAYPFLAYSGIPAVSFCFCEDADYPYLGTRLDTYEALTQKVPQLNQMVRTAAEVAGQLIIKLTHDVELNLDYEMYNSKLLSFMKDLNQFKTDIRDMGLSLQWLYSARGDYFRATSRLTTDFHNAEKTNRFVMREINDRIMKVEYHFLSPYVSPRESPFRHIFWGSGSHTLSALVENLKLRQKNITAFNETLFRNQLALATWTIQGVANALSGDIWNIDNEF

B1: H01-Fc (designed binder)
chain: ARVDQTPQTITKETGESLTINCVLRDSNCALSSTYWYRKKSGSTKEESISKGGRYVETVNSGSKSFSLRINDLTVEDSGTYRCNVWHDLVWSVCTTDVYGGGTVVTVNAASGA
As for B1, in test [1], the binding result is on record as “no binding”. Besides, the EC50 in test [2] is approximately 100 nM.

B2: F02-hFc (designed binder)
chain: ARVDQTPQTITKETGESLTINCVLRDNDCTLSSTHWYRKKSGSTNEERISKGGRYVETVNSGSKSFSLRINDLTVEDSGTYRCNVYAMTRNWWCDVYGGGTVVTVNAASGA
On to B2, for which the EC50 in test [3] is 26.3 nM; in test [4], 34.3 nM; in test [2], approximately 100 nM; in test [5], 9 nM; in test [6], 34.2 nM. Also, the binding result in test [1] is “no binding”.

In general, EC50 refers to the concentration that produces a half-maximal response. Lower therefore signals an effect from little substance.
